Patent US20160046713A1 (INNATE PHARMA, published 2016)

T1: KIR3DL2 domain 1 construct (V5-tagged, CD24-GPI anchored) on HEK-293T/17 cells (human, UniProt P43630 139-238)
T1 construct: also called pcDNA3.1/KIR3DL2 domain 1; KIR3DL2 extracellular domain 1
T1 sequence: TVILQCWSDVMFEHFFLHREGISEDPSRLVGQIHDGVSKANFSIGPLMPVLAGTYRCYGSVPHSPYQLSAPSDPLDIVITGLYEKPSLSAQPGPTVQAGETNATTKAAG

B1: AZ158 (murine monoclonal antibody) (antibody, mouse IgG2b, V domains shown)
VH: QVQLKESGPGLVAPSQSLSITCTVSGFSLTSFGVHWVRQPPGKGLEWLGVIWAGGSTNYNSALMSRLSISKDNSKSQVFLKMNSLQNDDTAMYYCARGNSNHYVSSFYYFDYWGQGTTLTVSS
VL: DIQMTQSPSSLSASLGGKVTITCKASQDINKYIAWYQHKPGKGPRLLIHYTSTLQPGIPSRFSGSGSGRDYSFSISNLEPEDITTYYCLQYDNLWTFGGGTKLEIK
notes: also called mAb AZ158; AZ158-PE
B2: chAZ158 (chimeric AZ158, human IgG1-kappa, with the MKV6-derived kappa chain) (antibody, V domains shown)
VH: B1 VH
VL: DIQMTQSPSSLSASLGGKVTITCKASQDINKYIAWYQHKPGKGPRLLIHYTSTLQPGIPSRFSGSGSGRDYSFSISNLEPEDITTYYCLQYDNLWTFGGGTKLEIKR
notes: also called chiAZ158; AZ158 chimeric antibody

Experiments:
[1] = biological target: T2, human KIR3DL1 (CD158e1) on cells (human, UniProt P43629 22-444); experiment: two colour immunofluorescence on polyclonal NK cell populations and clones
T2 construct: Present on donor NK and T cells
T2 sequence (P43629 22-444 limits assumed): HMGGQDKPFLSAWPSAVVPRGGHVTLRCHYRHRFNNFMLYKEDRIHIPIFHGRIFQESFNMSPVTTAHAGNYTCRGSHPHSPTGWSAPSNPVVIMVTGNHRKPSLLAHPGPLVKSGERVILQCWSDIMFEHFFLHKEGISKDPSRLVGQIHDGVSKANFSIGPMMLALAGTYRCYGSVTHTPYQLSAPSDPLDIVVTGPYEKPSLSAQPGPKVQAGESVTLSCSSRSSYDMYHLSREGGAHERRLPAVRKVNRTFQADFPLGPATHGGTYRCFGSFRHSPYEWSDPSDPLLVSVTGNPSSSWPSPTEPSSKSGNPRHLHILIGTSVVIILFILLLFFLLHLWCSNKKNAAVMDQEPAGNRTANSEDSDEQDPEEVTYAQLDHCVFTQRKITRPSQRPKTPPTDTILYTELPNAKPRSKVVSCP
Text: mAbs were generated by immunizing 5 week old Balb C mice with polyclonal IL-2 activated NK population. […] The reactivity of AZ158 was further analyzed on NK cell populations and clones in combination with additional antibodies, including EB6 ([…], CD158a), GL183 (anti-p58.2/50.2, CD158b), PAX180 (anti-p50.3) and FES172 (anti-p50.3), as well as Z27 and Q66, and it was observed that AZ158 reacted with the same cell subset stained by the anti-KIR3DL1 and anti-KIR3DL2 mAbs. Similar results were also observed using a panel of NK cell clones expressing different HLA class I specific NK receptors.

[2] = biological target: T3, human KIR3DS1 (CD158e2) on cells (human, UniProt P43629 22-381); experiment: flow cytometry with AZ158-PE on healthy donor PBMC gated on CD3+ T lymphocytes
T3 construct: Present on donor NK and T cells
T3 sequence (P43629 other isoform, or with tags, fused parts or gaps limits assumed): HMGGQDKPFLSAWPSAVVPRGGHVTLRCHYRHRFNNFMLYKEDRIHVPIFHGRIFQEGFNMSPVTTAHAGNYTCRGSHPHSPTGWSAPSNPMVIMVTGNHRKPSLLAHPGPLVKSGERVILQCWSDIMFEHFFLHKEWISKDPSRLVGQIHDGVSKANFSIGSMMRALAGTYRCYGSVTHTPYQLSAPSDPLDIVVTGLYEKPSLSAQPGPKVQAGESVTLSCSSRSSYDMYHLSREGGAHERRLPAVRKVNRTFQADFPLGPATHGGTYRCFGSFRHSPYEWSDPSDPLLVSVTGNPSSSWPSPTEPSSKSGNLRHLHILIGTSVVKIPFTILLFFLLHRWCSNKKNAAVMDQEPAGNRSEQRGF

[3] = biological target: T1, KIR3DL2 domain 1 construct (V5-tagged, …); experiment: flow cytometry on transfected HEK-293T/17 cells, goat anti-human-PE detection
Experimental: (§1) Transfections were performed using 5 μg of the different pcDNA3.1/KIR3DL2 domain 0, pcDNA3.1/KIR3DL2 domain 1 or pcDNA3.1/KIR3DL2 domain 2 constructs using Lipofectamine 2000 according to manufacturer instructions. To ensure DNA purity for transfection, Maxi-prep endotoxin free kit from Qiagen was used. The Lipofectamine/DNA ratio used was fixed at 2/1. Cells were harvested 48 hours after transfection for flow cytometry experiments.
(§2) Cells were harvested and stained in PBS 1×/BSA 0.2%/EDTA 2 mM buffer during 1H at 4° C. using 5 μg/ml of chiAZ158 antibody. After two washes in staining buffer, cells were stained for 30 min at 4° C. with anti-V5 antibody FITC (0.1 μl per well) and goat anti-human (H+L)-PE antibodies (1/200). After two washes, stainings were acquired on a BD FACS Canto II and analyzed using the FlowJo software.
(§3) Results are shown in FIGS. 7-10, with V5-FITC indicated on the y-axis and chAZ158-GAH-PE on the x-axis. […] No binding of the chiAZ158 antibody could be detected on KIR3DL2 domain 1 (FIG. 9) or domain 2 (FIG. 10). Therefore, it can be concluded from this flow cytometry experiment that the chAZ158 antibody binds to the KIR3DL2 extracellular domain 0 but not to domains 1 and 2.

[4] = biological target: T4, KIR3DL2 domain 2 construct (V5-tagged, CD24-GPI anchored) on HEK-293T/17 cells (human, UniProt P43630 239-340); experiment: as above
T4 construct: also called pcDNA3.1/KIR3DL2 domain 2; KIR3DL2 extracellular domain 2
T4 sequence (P43630 other isoform, or with tags, fused parts or gaps limits assumed): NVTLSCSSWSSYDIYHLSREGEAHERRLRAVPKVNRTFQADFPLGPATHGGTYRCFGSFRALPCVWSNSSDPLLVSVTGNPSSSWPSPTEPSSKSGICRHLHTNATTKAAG
Experimental: as §1, §2, §3

[5] = biological target: T5, KIR3DL1 recombinant protein (R&D systems) (Homo sapiens (Human), UniProt P43629 22-340); experiment: SPR (Biacore T100), receptor immobilized on chip, antibody injected at 12 µg/ml
T5 construct: Bought protein; also called KIR3DL1 chip; immobilized KIR3DL1
T5 sequence (P43629 22-340 limits assumed): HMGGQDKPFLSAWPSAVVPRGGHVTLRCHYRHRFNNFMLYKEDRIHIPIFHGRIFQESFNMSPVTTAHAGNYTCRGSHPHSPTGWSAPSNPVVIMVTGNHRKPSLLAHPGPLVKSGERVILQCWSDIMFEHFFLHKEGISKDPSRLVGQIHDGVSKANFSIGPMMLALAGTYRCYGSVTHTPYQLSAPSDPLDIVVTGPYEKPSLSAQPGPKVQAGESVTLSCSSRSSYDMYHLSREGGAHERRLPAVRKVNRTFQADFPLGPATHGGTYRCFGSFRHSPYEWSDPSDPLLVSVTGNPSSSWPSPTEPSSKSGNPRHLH
Experimental: The binding of chimeric AZ158 (“chAZ158”, see Example 3) to KIR3DL2 and KIR3DL1 recombinant proteins (R&D systems) was analyzed by Surface Plasmon Resonance (SPR) using a Biacore T100 apparatus. […] Antibody was injected at a constant concentration of 12 μg/ml over the KIR3DL2 and KIR3DL1 flow-cells. Background signals were subtracted online by co-injecting onto the reference flow cell (dextran alone). Sensorgrams are representative of three independent experiments.

Row | Binder | binding result [1] | binding result [2] | binding result [3] | binding result [4] | binding result [5]
1 | B1 | binds | binds | – | – | –
2 | B2 | – | – | no binding (tested: 5 µg/ml) | no binding (tested: 5 µg/ml) | binds
